Measurements: article doi:10.1101/348268

What was measured:
[1] = molecular target: Mesoplasma florum ribonucleotide reductase protein R2 (MfR2), active form with meta-hydroxylated Tyr126 (DOPA) (Mesoplasma florum); test: crystal structure
[2] = molecular target: Mesoplasma florum ribonucleotide reductase protein R2 (MfR2), inactive form with unmodified Tyr126 (Mesoplasma florum); test: crystal structure

Substance | stoichiometry N [1] | stoichiometry N [2]
Mesoplasma florum ribonucleotide reductase protein R2 (MfR2), active form with meta-hydroxylated Tyr126 (DOPA) (enzyme) | 2 | –
Mesoplasma florum ribonucleotide reductase protein R2 (MfR2), inactive form with unmodified Tyr126 (enzyme) | – | 2
